From US20250011363A1, “OPTIMIZED SHORTENED PEPTIDE THAT BINDS TO ACETYLCHOLINE RECEPTOR, AND USE THEREOF” (SKINMED CO., LTD., priority 2021, published 2025)

Molecular target: acetylcholine receptor
Experiment: SPR, AchR immobilized on CM5 chip, peptide at 10 uM

Binder	Binding affinity (RU)
RLVYRK [6mer-2-380]	141
KQISKK [6mer-2-343]	146
KRFSKK [6mer-2-346]	153
RGVCKR [6mer-2-385]	154
KWLCKK [6mer-2-387]	146
KQQCKR [6mer-2-376]	141
KSRQKK [6mer-2-345]	148
RRYSKK [6mer-2-347]	148
RGQRKK [6mer-2-357]	151
RLFCKK [6mer-2-359]	136
KVVTKR [6mer-2-341]	144
KLVQRR [6mer-2-372]	141
KGVRRR [6mer-2-360]	141
RQIYKK [6mer-2-358]	154
RWRSRR [6mer-2-367]	142
RWFYRR [6mer-2-352]	137
RWISKK [6mer-2-354]	135
RSVQKR [6mer-2-338]	145
KSLYKK [6mer-2-389]	153

Binder	Binding affinity (RU)
KRLSRR [6mer-2-371]	148
KVFTKK [6mer-2-364]	154
RLLQRR [6mer-2-356]	145
KLVRRK [6mer-2-383]	128
RGQTRK [6mer-2-350]	148
RRYCRR [6mer-2-377]	142
KSLLRR [6mer-2-370]	142
KRFQKK [6mer-2-388]	139
KVYRRR [6mer-2-381]	139
RLRTRR [6mer-2-368]	142
KWLRRR [6mer-2-390]	145
KQYYRR [6mer-2-366]	142
RGVQKR [6mer-2-379]	127
KQFQKK [6mer-2-337]	142
KLIYRK [6mer-2-373]	139
KLYTKR [6mer-2-351]	135
KSVSRR [6mer-2-382]	148
RLQTKK [6mer-2-353]	137
RSFQRR [6mer-2-361]	153

Binder	Binding affinity (RU)
KRYRKK [6mer-2-342]	145
KSIYRK [6mer-2-363]	147
KWQSKR [6mer-2-386]	136
KVVRRR [6mer-2-369]	145
RWRYRR [6mer-2-365]	121
RRLSRR [6mer-2-349]	137
KQVYKK [6mer-2-339]	151
RRLTRR [6mer-2-340]	122
RVVQKK [6mer-2-375]	131
KRQLKK [6mer-2-374]	125
KSQLRR [6mer-2-348]	153
KRFQRK [6mer-2-378]	131
KLITKR [6mer-2-336]	135
KWRSRR [6mer-2-335]	153
KGIRRK [6mer-2-344]	148
RSFQKK [6mer-2-384]	142
RGIRKK [6mer-2-355]	124
RGRQKR [6mer-2-362]	154
